The target of the assay is GroEL14 as used with the substrate proteins NanA and DapA (E. coli) (UniProt P0A6F5). In words: native MS; CE-MS; 6 µM GroEL14 with 6 or 12 µM substrate monomers, denatured in 6.5 M GuHCl and 9 mM DTT and diluted 30-fold into GroEL14 buffer pH 7.5 (200 mM GuHCl, 0.3 mM DTT left); no ATP, no GroES; BGE 50 mM ammonium acetate pH 6.7.

Where “and” joins values, the source holds several entries; their conditions need not be identical. Identical values can stand only once.

Sequence of N-acetyl neuraminic acid aldolase, denatured monomer (NanA) (P0A6L4 2-297): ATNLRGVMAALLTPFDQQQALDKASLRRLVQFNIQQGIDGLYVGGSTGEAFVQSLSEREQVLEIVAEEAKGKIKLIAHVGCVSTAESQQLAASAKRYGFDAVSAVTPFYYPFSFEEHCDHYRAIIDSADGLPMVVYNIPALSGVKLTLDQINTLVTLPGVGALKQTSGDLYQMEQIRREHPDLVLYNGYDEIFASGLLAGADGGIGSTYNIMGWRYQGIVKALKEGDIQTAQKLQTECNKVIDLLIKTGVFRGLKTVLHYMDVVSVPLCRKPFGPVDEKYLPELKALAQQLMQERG

Turning to “N-acetyl neuraminic acid aldolase, denatured monomer (NanA) (from UniProt P0A6L4 2-297) (enzyme)”, the share of the total signal intensity, GroEL14-NanA1 complex amounted to 10%; the share of the total signal intensity, GroEL14-NanA2 complex is 90%; the stoichiometry N (NanA monomers per GroEL14) was 1 and 2.

(Values after paper PMC10953559.)
